Measured values published in patent publication US20240343803A1 (SHANDONG SIMCERE BIOPHARMACEUTICAL, published 2024).

T1: human PVRIG-his (AcroBiosystems, Cat NO. PVG-H52H4) (human, UniProt Q6DKI7 41-171, limits assumed)
T1 construct: also called human PVRIG protein
T1 sequence (looked up): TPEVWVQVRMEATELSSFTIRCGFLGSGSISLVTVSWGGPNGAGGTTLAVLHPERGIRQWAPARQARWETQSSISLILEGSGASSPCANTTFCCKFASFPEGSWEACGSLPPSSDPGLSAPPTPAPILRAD

T2: cynomolgus monkey PVRIG (Novoprotein, Cat NO. C09B) (cynomolgus monkey, UniProt A0A2K5WVV8 41-171)
T2 construct: also called cynomolgus monkey PVRIG protein
T2 sequence: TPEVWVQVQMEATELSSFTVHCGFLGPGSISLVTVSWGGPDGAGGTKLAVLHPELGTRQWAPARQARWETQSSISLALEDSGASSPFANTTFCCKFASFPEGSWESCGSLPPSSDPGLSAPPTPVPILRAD

T3: Fusion protein of extracellular domain of human TIGIT and mouse IgG2a Fc fragment (human TIGIT ECD-mFc) (human)
T3 construct: The entry includes the signal peptide (limits not recoverable) and the mouse IgG2a Fc
T3 chain: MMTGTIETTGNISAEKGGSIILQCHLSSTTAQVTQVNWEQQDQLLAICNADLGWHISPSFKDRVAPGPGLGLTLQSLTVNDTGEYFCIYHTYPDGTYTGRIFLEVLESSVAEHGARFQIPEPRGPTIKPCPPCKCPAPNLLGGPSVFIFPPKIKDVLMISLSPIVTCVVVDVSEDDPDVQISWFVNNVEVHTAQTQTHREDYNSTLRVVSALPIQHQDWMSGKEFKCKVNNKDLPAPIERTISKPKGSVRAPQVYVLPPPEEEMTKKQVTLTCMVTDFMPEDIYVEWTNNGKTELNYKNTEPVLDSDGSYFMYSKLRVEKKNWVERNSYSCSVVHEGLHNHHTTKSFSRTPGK

T4: Full-length human TIGIT on CHO-K1 cells (CHO-K1 human TIGIT) (human, UniProt Q495A1 22-244)
T4 construct: NCBI XP_024309156.1; the entry includes the signal peptide (limits not recoverable); The strain (high, medium, low) is named under assay; also called high expression strain 1D2; medium expression strain 2D10
T4 sequence: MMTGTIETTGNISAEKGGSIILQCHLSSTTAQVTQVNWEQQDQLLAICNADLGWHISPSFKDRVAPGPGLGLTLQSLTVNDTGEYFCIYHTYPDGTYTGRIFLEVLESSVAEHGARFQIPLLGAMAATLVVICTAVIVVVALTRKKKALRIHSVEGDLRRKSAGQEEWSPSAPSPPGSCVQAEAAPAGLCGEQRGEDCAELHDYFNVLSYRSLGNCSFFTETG


Assays:
[1] = biological target: T1, human PVRIG-his (AcroBiosystems, Cat …); test: ELISA, antigen coated
Description: (§1) The ELISA plate was pre-coated with 100 μL/well of 0.5 μg/mL human PVRIG-his (AcroBiosystems, Cat NO. PVG-H52H4) or cynomolgus monkey PVRIG (Novoprotein, Cat NO. C09B). The tested anti-PVRIG humanized antibodies were serially diluted (initial concentration 3 nM, 3-fold serial dilution), added into the plate (100 μL/well) and incubated with shaking at room temperature for 1.5 hours. […] A HRP substrate, TMB (Thermo, Cat NO. 34029) was added into wells after washing the plate again for color development. After adding a termination solution to terminate the reaction, the absorbance value was read by a microplate reader (MD i3×). An antibody binding curve was drawn with concentration of antibodies as the abscissa and the corresponding OD value as the ordinate. The EC50 value was calculated by using a Four Parameter Logistic Fit (GraphPadPrism9). The smaller the EC50 value, the stronger the ability of the antibodies binds to human or cynomolgus monkey PVRIG. The binding effect of the humanized antibodies was normalized to the corresponding parental antibodies. If the percentage value is higher than 100%, the binding effect of humanized antibodies is better than that of parental antibody.

[2] = biological target: T2, cynomolgus monkey PVRIG (Novoprotein, …); test: ELISA, antigen coated
Description: as §1

[3] = biological target: T1, human PVRIG-his (AcroBiosystems, Cat …); test: competition ELISA, PVRIG-His coated, competitor human PVRL2-mFc
Description: The ELISA plate was pre-coated with 100 μL/well of 0.5 μg/mL human PVRIG-his protein (AcroBiosystems, Cat NO. PVG-H52H4). The tested anti-PVRIG antibodies were diluted from the highest concentration of 16 nM (two-fold concentration). The diluted antibodies were mixed with 18 ng/ml human PVRL2-mFc (AcroBiosystems, Cat NO. CD2-H5257) in equal volume, added into the plate (100 μL/well), and incubated with shaking at room temperature for 2.0 hours. […] A HRP substrate, TMB (Thermo, Cat NO. 34029) was added into wells after washing the plate again for color development. After adding a termination solution to terminate the reaction, the absorbance value was read by a microplate reader (MD i3×). An inhibiting curve was drawn with concentration of antibodies as the abscissa and the corresponding OD value as the ordinate. The IC50 value was calculated by using a Four Parameter Logistic Fit (GraphPadPrism9). The smaller the IC50 value, the stronger the ability of the antibodies inhibits the binding between PVRIG and PVRL2. The positive and negative controls are the same as in Example 8.
The methods refer to Example 11. The inhibiting activity of the humanized antibodies was normalized to the corresponding parental antibodies. If the percentage value is higher than 100%, the inhibiting effect of humanized antibodies is better than that of parental antibodies.

[4] = biological target: T1, human PVRIG-his (AcroBiosystems, Cat …); test: SPR (BIAcore), antibody captured on Protein A chip, human PVRIG-His analyte
Description: Biacore was used to detect the specific binding between anti-PVRIG antibody and human PVRIG protein. Protein A chip was used in the BIAcore assay. The time required for the chip to capture the diluted antibody and saturate the binding antigen to reach Rₘₐₓ (Maximum binding capacity, 50 RU) was measured by manual run. […] The affinity of antibody for antigen was measured by multi-cycle kinetics. In each cycle, the antibodies were injected prior to the injection of gradient concentraions of PVRIG proteins allowing the occurrence of antibody-antigen association and dissociation After each cycle, the Protein A chip was regenerated by Glycine, pH 1.5 (to remove the proteins on the chip). The affinity of antibody for antigen was calculated by BIAcore T200 analysis software.
The methods refer to Example 10.

[5] = biological target: T3, Fusion protein of extracellular domain …; test: ELISA, human TIGIT ECD-mFc
Description: (§2) After discarding the coating solution, the plate was added with 5% skim milk powder (Sangon Biotech, CAT #A600669-0250)-PBS, 250 μL/well, and incubated at 37° C. for 2-4 hours. […] The enzyme-labeled plate was then washed with 0.05% Tween 20-PBS for 3 times on the Microplate Washer, added with tested antibodies diluted to 13 nM with 1% BSA (diluted by 3-fold serial dilution for 12 concentration points), 50 μL/well, and incubated at 37° C. for 1.5-2 hours. The plate was washed with 0.05% Tween 20-PBS for 3 times on the Microplate Washer, then added with HRP enzyme-labeled antibodies (Merck, CAT #AP113P) diluted with 1% BSA (Sangon Biotech, CAT #A500023-0100)-PBS at a dilution ratio of 1:5000, 50 μL/well, and incubated at 37° C. for 1 hour. After washing 3 times with 0.05% Tween 20-PBS on the Microplate Washer, the plate was added with TMB chromogenic solution (KPL, CAT #52-00-03), 50 μL/well, and incubated at room temperature for 7-10 minutes. 1M HCL, 50 μL/well, was then added into the plate to terminate the reaction, and the OD450 nm was read by a microplate reader (Biotek, Powerwave HT). […] (b) The binding activity of anti-TIGIT chimeric antibodies to CHO-K1 human TIGIT (cells with high, medium and low expression levels) and CHO-KI cynomolgus monkey TIGIT detected by FACS.
(§3) The affinity of the above humanized antibodies with human TIGIT ECD-His is detected by BIAcore, and with reference to the methods of Example 4 (a), (b), and (d), the binding activity of the above humanized antibodies to human TIGIT ECD-mFc, CHO-K1 human TIGIT, CHO-K1 cynomolgus monkey TIGIT and cynomolgus monkey TIGIT ECD-mFc, and the effect of the humanized antibodies blocking the binding between human TIGIT ECD-mFc and CHO-K1 CD155 are detected, the results are shown in Table 18.

[6] = biological target: T5, Fusion protein of extracellular domain of cynomolgus monkey TIGIT and mouse IgG2a Fc fragment (cynomolgus … (cynomolgus monkey)); test: ELISA, cynomolgus monkey TIGIT ECD-mFc
T5 construct: The entry includes the signal peptide (limits not recoverable) and the mouse IgG2a Fc
T5 sequence (chain, as listed by the source limits assumed): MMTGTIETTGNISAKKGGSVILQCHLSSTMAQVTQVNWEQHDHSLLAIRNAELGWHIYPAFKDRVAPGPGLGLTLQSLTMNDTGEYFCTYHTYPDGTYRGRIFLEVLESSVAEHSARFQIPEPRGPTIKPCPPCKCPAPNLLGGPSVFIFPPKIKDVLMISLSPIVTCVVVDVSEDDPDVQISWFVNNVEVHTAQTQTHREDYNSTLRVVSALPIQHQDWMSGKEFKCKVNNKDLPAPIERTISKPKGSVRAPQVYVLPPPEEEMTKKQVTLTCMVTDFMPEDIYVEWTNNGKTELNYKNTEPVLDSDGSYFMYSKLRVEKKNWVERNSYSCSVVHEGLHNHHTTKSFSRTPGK
Description: as §2, §3

[7] = biological target: T6, Full-length cynomolgus monkey TIGIT on CHO-K1 cells (CHO-K1 cynomolgus monkey TIGIT) (cynomolgus monkey); test: cell binding, CHO-K1 cynomolgus monkey TIGIT
T6 construct: NCBI XP_015300911.1
T6 sequence (chain, as listed by the source limits assumed): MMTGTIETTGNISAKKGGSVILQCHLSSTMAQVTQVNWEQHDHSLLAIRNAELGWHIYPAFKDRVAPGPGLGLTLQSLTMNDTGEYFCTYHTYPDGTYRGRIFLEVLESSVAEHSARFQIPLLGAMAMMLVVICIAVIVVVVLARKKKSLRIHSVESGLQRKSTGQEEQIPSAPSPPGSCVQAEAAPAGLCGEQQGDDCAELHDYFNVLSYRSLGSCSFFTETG
Description: (§4) The collected cells were washed once with PBS (Hyclone, CAT #SH30256), resuspended to 2×10⁵/50 μL with 1% BSA-PBS. The antibodies were diluted to 80 nM with 1% BSA-PBS (diluted by 3-fold serial dilution for 12 concentration points). The 50 μL cells were then mixed with 50 μL diluted antibodies, and then incubated at 4° C. for 60 minutes. […] After washing twice with PBS, the cell samples were resuspended with 1% BSA-PBS, 100 μL/well and then analyzed by flow cytometry (BD, Canto II). […] [0298] (c) The effect of anti-TIGIT chimeric antibodies blocking the interaction between Bio-CD155-His and CHO-K1 human TIGIT high expression cell strains detected by FACS
as §3

[8] = biological target: T7, Fusion protein of extracellular domain of human TIGIT and human IgG1 Fc fragment (human TIGIT ECD-hFc) (human); test: blocking of TIGIT ECD-hFc binding to CHO-K1 CD155 cells
T7 construct: The entry includes the signal peptide (limits not recoverable) and the human IgG1 Fc
T7 sequence (chain, as listed by the source limits assumed): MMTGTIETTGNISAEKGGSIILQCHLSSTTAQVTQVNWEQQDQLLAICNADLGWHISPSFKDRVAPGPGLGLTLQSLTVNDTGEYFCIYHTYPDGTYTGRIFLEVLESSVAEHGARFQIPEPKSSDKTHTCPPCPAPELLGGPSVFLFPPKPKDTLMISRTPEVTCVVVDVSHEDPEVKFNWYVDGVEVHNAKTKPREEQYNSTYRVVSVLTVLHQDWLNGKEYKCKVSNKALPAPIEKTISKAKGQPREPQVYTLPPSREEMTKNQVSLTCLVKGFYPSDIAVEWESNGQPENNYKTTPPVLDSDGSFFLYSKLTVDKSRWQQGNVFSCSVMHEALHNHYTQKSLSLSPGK
Outline: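 Cell-based ELISA on CHO-K1 CD155 cells, cultured overnight, fixed and blocked with 5% skim milk-PBS. Antibodies were premixed for 0.5 h with human TIGIT ECD-hFc (working concentration 30 ng/mL), then added and held at 37° C for 1.5-2 h. Bound TIGIT was detected with HRP secondary antibody (1:5000, 37° C, 1 h) and TMB, read as OD450 nm. IC50 came from the inhibition curves.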

[9] = biological target: T4, Full-length human TIGIT on CHO-K1 cells …; test: cell binding, CHO-K1 human TIGIT high expression strain
Description: as §4, §3

Binder | EC50 [1] [pM] | EC50 [2] [pM] | % relative activity (IC50) parental antibody/test antibody [3] [%] | IC50 [3] [pM] | Kd [4] [pM] | koff [4] [s⁻¹] | kon [4] [M⁻¹ s⁻¹] | EC50 [5] [pM] | EC50 [6] [pM] | EC50 [7] [pM] | IC50 [8] [pM] | EC50 [9] [pM]
PVRIG-A105-H5 (Fc fusion, humanized variant of PVRIG-A105; also called A105.VH5; not shown: constant part not restated for the humanized forms; parents are VHH-hinge-CH2-CH3 of human IgG1; detected by anti-human) EVQLVESGGGLVQPGGSLRLSCAASGRTFDRHTMTWFRQAPGKEREFVATASRIPGDTYYVDSVKGRFTISRDNAKNSLYLQMNSLRAEDTAVYYCAATSAYCSEVDCYEKGSWYDNWGQGIQVTVSS | 67.8 | 37.7 | 114 | 647 | 818 | 0.00091 | 1.11e+06 | – | – | – | – | –
PVRIG-A105-H2 (Fc fusion, humanized variant of PVRIG-A105; also called A105 VH2; not shown: constant part not restated for the humanized forms; parents are VHH-hinge-CH2-CH3 of human IgG1; detected by anti-human) EVQLVESGGGLVQPGGSLRLSCAASGRTFDRHTMTWFRQAPGKEREFVATASRIPGDTYYVDSVKGRFTISRDNAKNSLYLQMNSLRAEDTAVYYCAATSAYCSEVDCYEKGSWYDNWGQGTMVTVSS | 51.5 | 34.3 | 128 | 577 | 693 | 0.00092 | 1.33e+06 | – | – | – | – | –
TIGIT-002-H4L1 (antibody, V domains shown, Humanized anti-TIGIT antibody) VH: EVQLQESGPGLVKPSETLSLTCAVSGYSITSDSWNWIRQPPGKKLEYIGYISYSGNTYYNPSLKSRVTISRDTSKNQFSLKLSSVTAADTAVYYCARLDFSNYGGAVDYWGQGTTVTVSS VL: DIVMTQTPLSLSVTPGQPASISCKASQNVRTAVAWYLQKPGQSPQLMIYSASYRYTGVPDRFSGSGSGTDFTLKISRVEAEDVGVYYCQQYYTTPWTFGGGTKVEIK | – | – | – | – | – | – | – | 16.4 | 20.6 | 54.3 | 445 | 25.3
TIGIT-002-H4L2 (antibody, V domains shown, Humanized anti-TIGIT antibody) VH: EVQLQESGPGLVKPSETLSLTCAVSGYSITSDSWNWIRQPPGKKLEYIGYISYSGNTYYNPSLKSRVTISRDTSKNQFSLKLSSVTAADTAVYYCARLDFSNYGGAVDYWGQGTTVTVSS VL: DIVMTQTPLSLSVTPGQPASISCKASQNVRTAVAWYQQKPGQSPQLMIYSASYRYTGVPDRFSGSGSGTDFTLKISRVEAEDVGVYYCQQYYTTPWTFGGGTKVEIK | – | – | – | – | – | – | – | 17.9 | 25.4 | 47.4 | 440 | 29.4
